A word on the Kd: it is the free concentration of one partner at which half of the binding sites on the other are occupied at equilibrium, for simple one-to-one binding. One may read the stoichiometry N as a count of units in the complex or per binding partner.

Here are results for 5 molecules from article PMC11162770, “The mutation R107Q alters mtSSB ssDNA compaction ability and binding dynamics” (Nucleic Acids Research, 2024).

For data set [1], the system named is mtSSB R107Q-Alexa555/647 (human). Briefly: TIRF dissociation. Conditions: unwrapping almost 3 times faster than WT, EMSA: 20 mM Tris-HCl pH 7.8, 10 mM MgCl2, 0.1 mg/ml BSA, 10 mM DTT, 10% glycerol, 2 mM ATP, room temperature, TIRF: ssDNA diluted in 20 mM TrisOAc pH 8, 20% …. (In general: A gel shift assay detects complexes by their altered migration in electrophoresis.)

In data set [2] the target is T1, mtSSB WT-Alexa555/647 (human) (UniProt Q04837).
T1 sequence: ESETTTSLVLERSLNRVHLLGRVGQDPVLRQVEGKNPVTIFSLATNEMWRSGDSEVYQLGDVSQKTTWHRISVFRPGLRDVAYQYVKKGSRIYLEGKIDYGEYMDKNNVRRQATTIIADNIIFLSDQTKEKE
Briefly: TIRF dissociation. Conditions: EMSA: 20 mM Tris-HCl pH 7.8, 10 mM MgCl2, 0.1 mg/ml BSA, 10 mM DTT, 10% glycerol, 2 mM ATP, room temperature, TIRF: ssDNA diluted in 20 mM TrisOAc pH 8, 20% ….

In data set [3] the test system is mtSSB R107Q-Alexa555/647 (human). Briefly: competition. Conditions: EMSA: 20 mM Tris-HCl pH 7.8, 10 mM MgCl2, 0.1 mg/ml BSA, 10 mM DTT, 10% glycerol, 2 mM ATP.
The target of data set [4] is T1, mtSSB WT-Alexa555/647 (human). Briefly: competition. The conditions noted are these: WT-Alexa647 vs R107Q-Alexa555 150 nM each (1:1); 24% of ssDNA WT only, 76% both; EMSA: 20 mM Tris-HCl pH 7.8, 10 mM MgCl2, 0.1 mg/ml BSA, 10 mM DTT, 10% glycerol, 2 mM ATP, room temperature; TIRF: ssDNA diluted in 20 mM TrisOAc pH 8, 20% ….
For data set [5], the target named is T2, mtSSB WT (His-tag, C-terminal Cys) (human, UniProt Q04837 17-148).
T2 sequence: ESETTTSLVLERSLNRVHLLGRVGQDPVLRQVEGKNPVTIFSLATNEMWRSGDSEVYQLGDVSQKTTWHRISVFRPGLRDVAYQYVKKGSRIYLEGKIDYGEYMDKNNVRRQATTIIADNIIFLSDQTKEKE
Briefly: BLI; 1:1 fit; Discussion swaps the 30/60-nt labels; EMSA: 20 mM Tris-HCl pH 7.8, 10 mM MgCl2, 0.1 mg/ml BSA, 10 mM DTT, 10% glycerol, 2 mM ATP, room temperature; TIRF: ssDNA diluted in 20 mM TrisOAc pH 8, 20% sucrose, 20 mM DTT, NaOAc 0-400 mM added; BLI and AFS buffers not in material. Conditions: protein: recombinant; tags: N-terminal His; extra C-terminal Cys; chain copies: 4; single strand. (BLI is a label-free optical method that tracks binding on a fibre tip over time.)

Data set [6] deals with T3, mtSSB R107Q (His-tag, C-terminal Cys) (human, UniProt Q04837 17-148, R107Q).
T3 sequence: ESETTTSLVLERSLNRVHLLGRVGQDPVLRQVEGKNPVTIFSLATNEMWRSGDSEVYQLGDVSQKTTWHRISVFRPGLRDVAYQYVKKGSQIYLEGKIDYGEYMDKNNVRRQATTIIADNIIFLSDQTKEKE
Described as above. Conditions: protein: recombinant; tags: N-terminal His; extra C-terminal Cys; chain copies: 4; single strand.

Data set [7] deals with the molecule itself. Briefly: mass photometry; Refeyn TwoMP; proteins prepared at 1 uM and diluted to 100 nM before measurement; data collected for one minute; oligomeric state in solution (tetramer).

Turning to lambda ssDNA, the binding signal (% lost after salt) in data set [1] (100 mM NaOAc) came out at 40; in data set [1] (400 mM NaOAc) it was 77; in data set [2] (100 mM NaOAc), 20; in data set [2] (400 mM NaOAc) it was 20. The binding signal (% of mtSSB on co-coated ssDNA) worked out at 94 in data set [3] (R107Q-Alexa555 150 nM vs WT-Alexa647 15 nM (1:0.1), room …, TIRF: ssDNA diluted in 20 mM TrisOAc pH 8, 20% suc) and 73 in data set [4]. In addition, the binding signal (% of ssDNA coated by R107Q only) in data set [3] (R107Q-Alexa555 vs WT-Alexa647 150 nM each (1:1), bound only together with WT, room temperature, TIRF: ssDNA diluted in 20 mM TrisOAc pH 8, 20% …) worked out at 0.

B1: poly-dT30 (ssDNA)
DNA: TTTTTTTTTTTTTTTTTTTTTTTTTTTTTT
On to B1, for which the Kd was 2.18 ± 0.1 nM in data set [5] and 1.35 ± 0.04 nM in data set [6].

B2: Mitochondrial single-stranded DNA-binding protein, wild type (mtSSB^WT), lacking the mitochondrial targeting sequence, with N-terminal His-tag and C-terminal … (natural protein, human)
chain: ESETTTSLVLERSLNRVHLLGRVGQDPVLRQVEGKNPVTIFSLATNEMWRSGDSEVYQLGDVSQKTTWHRISVFRPGLRDVAYQYVKKGSRIYLEGKIDYGEYMDKNNVRRQATTIIADNIIFLSDQTKEKEC
notes: one cysteine residue added at the C-terminus for maleimide labelling; not shown: His-tag, N-terminal, kept
Take B2: the “stoichiometry N” value in data set [7] was found to be 4.

B3: Mitochondrial single-stranded DNA-binding protein variant R107Q (mtSSB^R107Q), lacking the mitochondrial targeting sequence, with N-terminal His-tag and … (natural protein, human)
chain: ESETTTSLVLERSLNRVHLLGRVGQDPVLRQVEGKNPVTIFSLATNEMWRSGDSEVYQLGDVSQKTTWHRISVFRPGLRDVAYQYVKKGSQIYLEGKIDYGEYMDKNNVRRQATTIIADNIIFLSDQTKEKEC
notes: one cysteine residue added at the C-terminus for maleimide labelling; R107Q is a variant found in patients; PDB 6RUP is the wild-type parent's structure; not shown: His-tag, N-terminal, kept
As for B3, in data set [7], the “stoichiometry N” value came out at 4.

B4: poly-dT60 (ssDNA)
DNA: TTTTTTTTTTTTTTTTTTTTTTTTTTTTTTTTTTTTTTTTTTTTTTTTTTTTTTTTTTTT
As for B4, the Kd in data set [5] was found to be 1.17 ± 0.02 nM; in data set [6], 1.18 ± 0.02 nM.
